Experiments:
[1] = Sweetness of reb M compared to a 10% sucrose solution
Source text: The high purity reb M obtained in this invention, having a molecular weight of 1291.29, a molecular formula of C56H90O33, CAS registry number 1220616-44-3, and the structure presented in FIG. 1, is in the form of a white and odorless powder. The compound is about 200 times sweeter than sugar when compared to a 10% sucrose solution.

[2] = Catalytic test of in-vitro expressed UDP-glucosyltransferases, Rebaudioside A to Rebaudioside D (HPLC); assay type: biochemical; conditions: 0.5 mM Rebaudioside A, 30° C.; for Steviol glycoside conversion in reaction mixture, Reb A (Retention Time ~9.1 min): remaining substrate
Experimental: The prepared expression medium mix was added to the plasmid solution and the solution was allowed to incubate at 30° C. for 3 hours while mixing the mixture every 45 minutes. 5 μL of the mixture was frozen whereas the remainder was used for the catalytic test for the conversion of Rebaudioside A to Rebaudioside D.
430 μL of a reaction mixture containing 0.5 mM Rebaudioside A, 3 mM MgCl2, 50 mM phosphate buffer (pH7.2) and 2.5 mM UDP-glucose was added to a 1.5 mL sterile microtube. 52 μL of the enzyme expression medium was added and the resulting mixture was allowed to react at 30° C. for 24 hours. 125 μL samples were taken after 2 hours, 16 hours and 24 hours and added to a 115 μL of 60% methanol and 10 μL of 2 N H2SO4. The quenched sample was centrifuged at 18,000 g for 2 minutes at RT. 200 μL was transferred to an HPLC vial and analyzed.
The HPLC assay was performed as follows:
430 μL of a reaction mixture containing 0.5 mM Rebaudioside A, 3 mM MgCl2, 50 mM phosphate buffer (pH7.2) and 2.5 mM UDP-glucose was added to a 1.5 mL sterile microtube. 52 μL of the enzyme expression medium was added and the resulting mixture was allowed to react at 30° C. for 24 hours. 125 μL samples were taken after 2 hours, 16 hours and 24 hours and added to a 115 μL of 60% methanol and 10 μL of 2 N H2SO4. The quenched sample was centrifuged at 18,000 g for 2 minutes at RT. 200 μL was transferred to HPLC vial and analyzed.
The HPLC assay was performed as described in EXAMPLE 20.

[3] = Rubusoside conversion products with UGTSL, UGTSL2 and UGTLB by LC-MS; assay type: biochemical; conditions: reaction time UGTSL2 2 hrs, UGTLB 5 hrs, UGTSL 45 hrs
Experimental: (§1) Conversion of stevioside with UGTSL and UGTSL2 was conducted in similar manner to Example 28, and the conversion of rubusoside with UGTSL and UGTSL2 was conducted similarly to Example 29. Conversions of rubusoside and stevioside with UGTLB was conducted similarly to Example 32.
(§2) The reaction mixtures were analyzed by LCMS to determine all reaction products.

[4] = Stevioside conversion products with UGTSL, UGTSL2 and UGTLB by LC-MS; assay type: biochemical; conditions: reaction time UGTSL2 2 hrs, UGTLB 2 hrs, UGTSL 22 hrs
Experimental: as §1, §2

## C=C1C[C@@]23CC[C@H]4[C@@](C)(CCC[C@@]4(C)C(=O)O[C@@H]4O[C@H](CO)[C@@H](O)[C@H](O[C@@H]5O[C@H](CO)[C@@H](O)[C@H](O)[C@H]5O)[C@H]4O[C@@H]4O[C@H](CO)[C@@H](O)[C@H](O)[C@H]4O)[C@@H]2CC[C@]1(O[C@@H]1O[C@H](CO)[C@@H](O)[C@H](O[C@@H]2O[C@H](CO)[C@@H](O)[C@H](O)[C@H]2O)[C@H]1O[C@@H]1O[C@H](CO)[C@@H](O)[C@H](O)[C@H]1O)C3 [reb M, rebaudioside M]
[1]
  times sweeter than sugar: about 200 times

B1: S115N05 A7: UGTSL, Solanum lycopersicum cyanidin-3-O-glucoside 2-O-glucuronosyltransferase-like, SEQ ID NO: 5 (protein, listed as Solanum lycopersicum)
chain: MSPKLHKELFFHSLYKKTRSNHTMATLKVLMFPFLAYGHISPYLNVAKKLADRGFLIYFCSTPINLKSTIEKIPEKYADSIHLIELHLPELPQLPPHYHTTNGLPPNLNQVLQKALKMSKPNFSKILQNLKPDLVIYDILQRWAKHVANEQNIPAVKLLTSGAAVFSYFFNVLKKPGVEFPFPGIYLRKIEQVRLSEMMSKSDKEKELEDDDDDDDLLVDGNMQIMLMSTSRTIEAKYIDFCTALTNWKVVPVGPPVQDLITNDVDDMELIDWLGTKDENSTVFVSFGSEYFLSKEDMEEVAFALELSNVNFIWVARFPKGEERNLEDALPKGFLERIGERGRVLDKFAPQPRILNHPSTGGFISHCGWNSAMESIDFGVPIIAMPMHLDQPMNARLIVELGVAVEIVRDDDGKIHRGEIAETLKGVITGKTGEKLRAKVRDISKNLKTIRDEEMDAAAEELIQLCRNGN
[2]
  Steviol glycoside conversion in reaction mixture, Reb UNK (Retention Time ~6.7 min): 23.3 % area
  Steviol glycoside conversion in reaction mixture, Reb A (Retention Time ~9.1 min): 46.7 % area
[3]
  Rubusoside conversion products, LC-MS peak area ratio: Reb D: 3.45%
  Rubusoside conversion products, LC-MS peak area ratio: Reb E: 35.88%
  Rubusoside conversion products, LC-MS peak area ratio: Rub: 7.82%
  Rubusoside conversion products, LC-MS peak area ratio: Stev: 2.37%
[4]
  Stevioside conversion products, LC-MS peak area ratio: Reb D: 0.54%
  Stevioside conversion products, LC-MS peak area ratio: Reb E: 49.68%
  Stevioside conversion products, LC-MS peak area ratio: Stev: 25.24%

B2: S115N01 A1: UDP-glucosyltransferase Os03g0702500, Oryza sativa Japonica Group, SEQ ID NO: 3 (protein, listed as Oryza sativa)
chain: MDDAHSSQSPLHVVIFPWLAFGHLLPCLDLAERLAARGHRVSFVSTPRNLARLPPVRPELAELVDLVALPLPRVDGLPDGAEATSDVPFDKFELHRKAFDGLAAPFSAFLDTACAGGKRPDWVLADLMHHWVALASQERGVPCAMILPCSAAVVASSAPPTESSADQREAIVRSMGTAAPSFEAKRATEEFATEGASGVSIMTRYSLTLQRSKLVAMRSCPELEPGAFTILTRFYGKPVVPFGLLPPRPDGARGVSKNGKHDAIMQWLDAQPAKSVVYVALGSEAPMSADLLRELAHGLDLAGTRFLWAMRKPAGVDADSVLPAGFLGRTGERGLVTTRWAPQVSILAHAAVCAFLTHCGWGSVVEGLQFGHPLIMLPILGDQGPNARILEGRKLGVAVPRNDEDGSFDRGGVAGAVRAVVVEEEGKTFFANARKLQEIVADREREERCIDEFVQHLTSWNELKNNSDGQYP
[2]
  Steviol glycoside conversion in reaction mixture, Reb D (Retention Time ~5.8 min): 2.1 % area
  Steviol glycoside conversion in reaction mixture, Reb A (Retention Time ~9.1 min): 96.7 % area

B3: S115N06 C2: UDP-glucoronosyl/UDP-glucosyl transferase family protein, Arabidopsis lyrata subsp. lyrata, SEQ ID NO: 7 (protein, listed as Arabidopsis lyrata)
chain: MDDKKEEVMHIAMFPWLAMGHLLPFLRLSKLLAQKGHKISFISTPRNILRLPKLPSNLSSSITFVSFPLPSISGLPPSSESSMDVPYNKQQSLKAAFDLLQPPLTEFLRLSSPDWIIYDYASHWLPSIAKELGISKAFFSLFNAATLCFMGPSSSLIEESRSTPEDFTVVPPWVPFKSTIVFRYHEVSRYVEKTDEDVTGVSDSVRFGYTIDGSDAVFVRSCPEFEPEWFSLLQDLYRKPVFPIGFLPPVIEDDDDDTTWVRIKEWLDKQRVNSVVYVSLGTEASLRREELTELALGLEKSETPFFWVLRNEPQIPDGFEERVKGRGMVHVGWVPQVKILSHESVGGFLTHCGWNSVVEGIGFGKVPIFLPVLNEQGLNTRLLQGKGLGVEVLRDERDGSFGSDSVADSVRLVMIDDAGEEIREKVKLMKGLFGNMDENIRYVDELVGFMRNDESSQLKEEEEEDDCSDDQSSEVSSETDEKELNLDLKEEKRRISVYKSLSSEFDDYVANEKMG
[2]
  Steviol glycoside conversion in reaction mixture, Reb D (Retention Time ~5.8 min): 0.28 % area
  Steviol glycoside conversion in reaction mixture, Reb UNK (Retention Time ~6.7 min): 3.9 % area
  Steviol glycoside conversion in reaction mixture, Reb A (Retention Time ~9.1 min): 95.8 % area

B4: S115N01 G2: UDP-glycosyltransferase, Avena strigosa, SEQ ID NO: 4 (protein, listed as Avena strigosa)
chain: MAVKDEQQSPLHILLFPFLAPGHLIPIADMAALFASRGVRCTILTTPVNAAIIRSAVDRANDAFRGSDCPAIDISVVPFPDVGLPPGVENGNALTSPADRLKFFQAVAELREPFDRFLADNHPDAVVSDSFFHWSTDAAAEHGVPRLGFLGSSMFAGSCNESTLHNNPLETAADDPDALVSLPGLPHRVELRRSQMMDPKKRPDHWALLESVNAADQKSFGEVFNSFHELEPDYVEHYQTTLGRRTWLVGPVALASKDMAGRGSTSARSPDADSCLRWLDTKQPGSVVYVSFGTLIRFSPAELHELARGLDLSGKNFVWVLGRAGPDSSEWMPQGFADLITPRGDRGFIIRGWAPQMLILNHRALGGFVTHCGWNSTLESVSAGVPMVTWPRFADQFQNEKLIVEVLKVGVSIGAKDYGSGIENHDVIRGEVIAESIGKLMGSSEESDAIQRKAKDLGAEARSAVENGGSSYNDVGRLMDELMARRSSVKVGEDIIPTNDGL
[2]
  Steviol glycoside conversion in reaction mixture, Reb D (Retention Time ~5.8 min): 0.6 % area
  Steviol glycoside conversion in reaction mixture, Reb A (Retention Time ~9.1 min): 99.4 % area

B5: S115N06 E1: hypothetical protein OsJ_04191, Oryza sativa Japonica Group, SEQ ID NO: 6 (protein, listed as Oryza sativa)
chain: MHVVMLPWLAFGHILPFAEFAKRVARQGHRVTLFSTPRNTRRLIDVPPSLAGRIRVVDIPLPRVEHLPEHAEATIDLPSNDLRPYLRRAYDEAFSRELSRLLQETGPSRPDWVLADYAAYWAPAAASRHGVPCAFLSLFGAAALCFFGPAETLQGRGPYAKTEPAHLTAVPEYVPFPTTVAFRGNEARELFKPSLIPDESGVSESYRFSQSIEGCQLVAVRSNQEFEPEWLELLGELYQKPVIPIGMFPPPPPQDVAGHEETLRWLDRQEPNSVVYAAFGSEVKLTAEQLQRIALGLEASELPFIWAFRAPPDAGDGDGLPGGFKERVNGRGVVCRGWVPQVKFLAHASVGGFLTHAGWNSIAEGLANGVRLVLLPLMFEQGLNARQLAEKKVAVEVARDEDDGSFAANDIVDALRRVMVGEEGDEFGVKVKELAKVFGDDEVNDRYVRDFLKCLSEYKMQRQG
[2]
  Steviol glycoside conversion in reaction mixture, Reb D (Retention Time ~5.8 min): 0.14 % area
  Steviol glycoside conversion in reaction mixture, Reb UNK (Retention Time ~6.7 min): 7.0 % area
  Steviol glycoside conversion in reaction mixture, Reb A (Retention Time ~9.1 min): 92.8 % area

B6: UGTSL2: UGTSL2, GI_460410132, Solanum lycopersicum UDP-glucosyltransferase, SEQ ID NO: 9 (protein, listed as Solanum lycopersicum)
chain: MATNLRVLMFPWLAYGHISPFLNIAKQLADRGFLIYLCSTRINLESIIKKIPEKYADSIHLIELQLPELPELPPHYHTTNGLPPHLNPTLHKALKMSKPNFSRILQNLKPDLLIYDVLQPWAEHVANEQNIPAGKLLTSCAAVFSYFFSFRKNPGVEFPFPAIHLPEVEKVKIREILAKEPEEGGRLDEGNKQMMLMCTSRTIEAKYIDYCTELCNWKVVPVGPPFQDLITNDADNKELIDWLGTKHENSTVFVSFGSEYFLSKEDMEEVAFALELSNVNFIWVARFPKGEERNLEDALPKGFLERIGERGRVLDKFAPQPRILNHPSTGGFISHCGWNSAMESIDFGVPIIAMPIHNDQPINAKLMVELGVAVEIVRDDDGKIHRGEIAETLKSVVTGETGEILRAKVREISKNLKSIRDEEMDAVAEELIQLCRNSNKSK
[3]
  Rubusoside conversion products, LC-MS peak area ratio: Reb D: 6.73%
  Rubusoside conversion products, LC-MS peak area ratio: Reb E: 52.88%
  Rubusoside conversion products, LC-MS peak area ratio: Rub: 3.54%
  Rubusoside conversion products, LC-MS peak area ratio: Stev: 2.12%
[4]
  Stevioside conversion products, LC-MS peak area ratio: Reb D: 1.70%
  Stevioside conversion products, LC-MS peak area ratio: Reb E: 42.56%
  Stevioside conversion products, LC-MS peak area ratio: Stev: 20.01%
